{
  "source": "patent US20060234208A1",
  "about": "“Novel mechanism for hiv-1 entry into host cells and peptides inhibiting this mechanism” (priority 2002, published 2006)",
  "molecules": {"B1": {"name": "rTAT: recombinant TAT (TAT86 III B) protein (protein)", "chain": "MIPVDPRLEPWKHPGSQPKTACTNCYCKKCCFHCQVCFITKALGISYGRKKRRQRRRAHQNSQTHQASLSKQPTSQPRGDPTGPKE"}, "B2": {"name": "TATBasMut: GST-fusion TAT HXB2 variant with the mutations R-49,52,53,55,56,57-A (protein, UniProt P04608 1-86, looked up, variant R49A R52A R53A R55A R56A R57A)", "Protein Tat": "B1 chain with I2E, R49A, R52A, R53A, R55A, R56A, R57A", "modifications": "GST fusion", "notes": "GST-fusion TAT HXB2 variant with the mutations R-49,52,53,55,56,57-A"}, "B3": {"name": "TATCysMut: GST-fusion TAT HXB2 variant with the mutations C-22,25,27-A (protein, UniProt P04608 1-86, looked up, variant C22A C25A C27A)", "Protein Tat": "B1 chain with I2E, C22A, C25A, C27A", "modifications": "GST fusion", "notes": "GST-fusion TAT HXB2 variant with the mutations C-22,25,27-A"}},
  "key": {"[1]": {"test_system": "TAT+/gp120-LV entry into C8166 cells", "assay": "TAT+/gp120-LV entry into C8166 cells after co-culture with U937/TAT cells (Examples IV and V)", "format": "cell-based, HIV-1", "details": "4 h co-culture with U937/TAT cells; without protease inhibitors", "method": "(§1) Transduction with HIV-1 -derived lentivirus. Vector stocks were prepared by transient co-transfection of 293T cells with the following combinations of plasmids: pRRL.hPGK.GFP.SIN-18+pCMV.DR8.2+pMD.G (Naldini et al. (1996), supra) (VSV-G-LV) or pEnvHXB (Huang et al., J. Virol. 72 (1998), 8952-8960) (TAT+/gp120-LV); pRRL.hPGK.GFP.SIN-18+pCMV.DR8.74 +pRSV-Rev ((Dull et al. (1998), supra)+pEnvHXB (TAT/gp120 -LV). Vector concentration was determined by HIV-1 p24 Core profile ELISA following the manufacturer's instructions. The entry experiments were conducted on 10^5 cells per well of a 48-well plate in the presence of 8 μg/ml polybrene. The number of GFP-positive cells was analysed by FACS."}, "HIV-1 Ba-L": {"test_system": "HIV-1 Ba-L", "assay": "Infection of PBMC with HIV-1 strain Ba-L (Example VI)", "format": "cell-based", "details": "PHA-stimulated PBMCs, 2 h infection; versus 100 μM control peptide; SEQ 4 and 44: 100-50-10 μM, SEQ 127: 1 μM-100-10 nM", "method": "This example is illustrated in FIG. 12. […] 4 (CSFINT), 44 (RDKVKK) and the complete gp120 region SEQ ID NO.127 (CSFNITTEIRDKVKK), where the entry experiment is performed with two strains of HIV-1 on peripheral blood cells (PBMCs) derived from healthy donors. In particular, strain III B uses CXCR4 as a co-receptor (X4) and Ba-L uses CCR5 (R5). […] In the graphs the percent inhibition of infection due to the peptides is shown, as compared to infection in the presence of 100 μM of a control peptide. PHA-stimulated PBMCs have been incubated with the peptides and immediately infected for 2 h at 37° C. This incubation time is sufficient to evaluate virus entry, by detecting the presence of early viral transcripts into the cytoplasm of infected cells. The peptide concentrations are as follows: SEQ ID NO.4 and 44: 100-50-10 μM; SEQ ID NO. 127: 1 μM-100-10 nM. In FIG. 12A is represented the effect of the peptides on the basal infection of both viral strains, in FIG. 1 2B the effect of the peptides on the infection following incubation with rTAT7 nM. A peptide-dependent inhibition of the basal infection by both HIV-1 strains is present already in the basal infection, reflecting the presence of TAT in the viral supernatants. In particular, these peptides are more efficient in reducing the basal infection by HIV-1 Ba-L than III B, reaching an inhibition from about 40% (SEQ ID NO. 44 and 127) to 70% (SEQ ID NO. 4). After cell incubation with 7 nM rTAT, the peptides have an enhanced efficacy in inhibiting the infection, and all of them show a dose-response effect, with similar outcomes on infections by both viral strains, confirming that their activity is related to the amount of membrane-bound TAT.\nCell cultures. U937 and C8166 cells were cultured in RPMI -1640 medium supplemented with 10% heat inactivated FCS; Phoenix cells were cultured in DMEM supplemented with 10% FCS; 293T cells were cultured in Iscove's medium supplemented with 10% FCS. […]\nInfection with wild type HIV-1. […] Amplified DNA was analyzed by Southern blot hybridization with a ^32P-labeled probe, and quantified by densitometry. […]"}, "[2]": {"molecular_target": "TAT present in the viral supernatant of HIV-1 Ba-L (HIV-1 strain Ba-L)", "assay": "cell-based or functional assay"}, "recombinant TAT protein": {"molecular_target": "T1, recombinant TAT protein (Human immunodeficiency virus type 1 group M subtype B, UniProt P69697, G61N/P58A/P59H/S77P/V67A)", "T1 construct": "TAT86 (full-length); purchased The Centralized facility for AIDS Reagents, National Institute for Biological Standards and Controls (donor Immunodiagnostic)", "assay": "Binding of selected phage to rTAT-coated microwells", "set-up": "species or system HIV-1", "details": "single phage clones; BSA and insertless phage FdTet as negative controls", "source_text": "For this assay, we have tested single phage clones for binding rTAT-coated microwells, using an unrelated protein, the Bovine Serum Albumin (BSA), as a negative control. The result is shown in the graph, where ‘Transducing Units’ is a parameter indicating the number of bound phage. Binding of the phage to an insertless phage, FdTet, is shown as a negative control."}, "[3]": {"molecular_target": "recombinant TAT86 III B (rTAT) (HIV-1 strain III B) (UniProt P04608)"}, "[4]": {"test_system": "TAT+/gp120-LV entry into C8166 cells", "assay": "Effect of rTAT pre-incubation on TAT+/gp120-LV entry into C8166 cells", "format": "cell-based, HIV-1", "details": "C8166 cells pre-incubated with rTAT for 15 min", "method": "This effect is reverted if the cells are pre-treated with Heparanase Ill. […] Again, this effect is reverted by pre-treating the cells with Heparanase IlI (FIG. 3B). To investigate the specificity of this effect, we have used lentiviral vectors pseudotyped with a different envelope, i.e. Vescicular Stomatitis Virus-G (VSV-G-LV), to transduce C8166 cells after co-culture with U937/TAT cells for different incubation times, or with the different U937/TAT clones for 2 h. […] Therefore, the increase in cell entry is strictly dependent not only on surface-bound TAT, but also on the presence of gp120. […]\nas §1"}, "gp120": {"molecular_target": "gp120 (Human immunodeficiency virus type 1 group M subtype B, UniProt P03375)", "details": "GST-fusion TAT HXB2 variants", "source_text": "The following TATHXB2 variants were produced as GST-fusion proteins as described (Mitola, S. et al. Identification of specific molecular structures of human immunodeficiency virus type 1 TAT relevant for its biological effects on vascular endothelial cells. J Virol 74, 344-53 (2000): TAT86 (full-length), TAT72 (product of TAT first exon), TATBasMut (with the mutations R-49,52,53,55,56,57-A), TATCysMut (with the mutations C-22,25,27-A."}, "[5]": {"test_system": "TAT/gp120-LV entry into C8166 cells", "assay": "Effect of GST-TAT variants on TAT-/gp120-LV entry into C8166 cells", "format": "cell-based, HIV-1", "details": "C8166 cells incubated with 7 μM GST-TAT variant for 15 min; compared to wild-type TAT86", "method": "as §1"}},
  "note": "Residue numbers refer to the chain shown, from its start.",
  "data": [
    {"molecule": "CSFNIT [SEQ ID NO. 4]", "values": [
      {"measurement": "blocking of virus entry at a concentration lower than 100 μM", "setting": "[1]", "value": "inefficient"},
      {"measurement": "percent inhibition of basal infection", "setting": "HIV-1 Ba-L", "value": "~70", "unit": "%"}
    ]},
    {"molecule": "CSFNITTEIRDKVKK [SEQ ID NO. 127, Synthetic peptide corresponding to the selected region of gp120]", "values": [
      {"measurement": "percent inhibition of basal infection", "setting": "HIV-1 Ba-L", "value": "about 40%"}
    ]},
    {"molecule": "RDKVKK [SEQ ID NO. 44]", "values": [
      {"measurement": "blocking of virus entry at a concentration lower than 100 μM", "setting": "[1]", "value": "inefficient"},
      {"measurement": "percent inhibition of basal infection", "setting": "HIV-1 Ba-L", "value": "about 40%"}
    ]},
    {"molecule": "soluble peptide SEQ ID NO. 4 (CSFNIT)", "values": [
      {"measurement": "percent inhibition of basal infection of PBMCs by HIV-1 Ba-L", "setting": "[2]", "value": 70, "unit": "%"}
    ]},
    {"molecule": "CPDRKKKVVMVC [SEQ ID NO.3, phage insert selected from CX10C Phage Display library, tested as phage]", "values": [
      {"measurement": "phage binding to rTAT-coated microwells", "setting": "recombinant TAT protein", "value": "specifically bind recombinant TAT protein"}
    ]},
    {"molecule": "soluble peptide SEQ ID NO. 44 (RDKVKK)", "values": [
      {"measurement": "percent inhibition of basal infection of PBMCs by HIV-1 Ba-L", "setting": "[2]", "value": 40, "unit": "%"}
    ]},
    {"molecule": "CTVECYFNCTPTC [SEQ ID NO.2, phage insert selected from CX3CX3CX3C Phage Display library, tested as phage]", "values": [
      {"measurement": "phage binding to rTAT-coated microwells", "setting": "recombinant TAT protein", "value": "specifically bind recombinant TAT protein"}
    ]},
    {"molecule": "recombinant gp120 III B protein", "values": [
      {"measurement": "Kd", "setting": "[3]", "value": 8, "unit": "nM"}
    ]},
    {"molecule": "B1", "values": [
      {"measurement": "increase of TAT+/gp120-LV entry", "setting": "[4]", "value": "dose-response effect in increasing TAT+/gp120-LV entry"}
    ]},
    {"molecule": "B2", "values": [
      {"measurement": "binding to rgp120-coated microwells", "setting": "gp120", "value": "retaining the ability to bind gp120"},
      {"measurement": "enhancement of TAT/gp120-LV entry into the cells", "setting": "[5]", "value": "ineffective in enhancing virus entry"}
    ]},
    {"molecule": "B3", "values": [
      {"measurement": "enhancement of TAT/gp120-LV entry into the cells", "setting": "[5]", "value": "could enhance vector entry"}
    ]}
  ]
}
